# Data published in the DeepSol protein solubility set.
# Assay: soluble on expression in E. coli; label from the status in PepcDB or PDB records
row,Sequence,soluble on expression in E. coli
1,MGSDKIHHHHHHMKPSGSAICIETAAMTMRFGSFTALDAVSIKVQAGSFHALLGENGAGKSTLVKCIMGFYRQTSGQLLVEDREVEIASPRDAAALGLGMVYQHFTLVPSLTGAENLVISRNAVPAMINWRRERQALNDFMATMPFQIPLERPVRELSAGEKQKLEIIKQLYLGRRFLILDEPTSVLTPAEADDMLGLVRSMTERGALTVLMISHKFHEVRKFADAVSVLRRGKLVGSGRTADLTTQEMAAMMIGDVKLAELDSRLPVVEASPSILSIRGMKTRDRSGLKSIEVDDLKVRAGEIVGIAGISGNGQKELAEVLAGQRPAEAGDITVKDRPYTATRQETRAANVRFIPEEPLLNACAPRMSVAENLSFRDFDVDAKGKTRFWLNAKAMRETAGRLIADFKVKTASPASPIASLSGGNVQRAVLARELTGDVDLLVVSNPCFGLDFSAVAEIRARIMKARNNGSAVLLFSEDLDELMEMSDRIVVMSDGRLVYETPARGADIAVIGAHMAGHA,not soluble
2,MSLNKGSERTFNDLVEFIGEEMDFESGFYNDSYLDRRITARMRRTDTEDYQTYQRLLERDNGEREELLDSLSINVTSFFRNPEAWERLRPVLRELTENNRRVRLWSAPSADGREPYSAAMLALDDPEIDARRVEITATDINADILEEARKGTYATSQTTDIADELEPLDDYTKYIEQDGDTFQVRDQVKEMVTFEQHDLIRGDPKRDFDLVFCRNLLIYIDSEFKVPIFETIRGSLREGGYLMIGMTETLPAECRDSFEAVDKRHRIYRREGHHHHHH,not soluble
3,MKKIAVFADVQNLYYTVRQAYGCHFNYAALWADISKRGEIVHAFAYAIDRGDSKQQQFQQILRNLGFTVRLKPYIQRSDGSAKGEWDVGITIDIMDFAPQVDEVVLASGDGDFDMLLDRVISKHGVEAVAYGVPGLTANSLIRAASRYVPIEGALLLK,not soluble
4,MFNGDDDFPMGAMHSFGQMHQQMMSDMNMMTGGMLRNMGMGGPMFGGLMVPSPFGAITDGSGQQPSRRRQELEMNPFAPFGGLLGGLGGMGMMMPPPGQGANMYMSSSVMTIGPDGKPRVEQQTVRRHGDVTETKRRVDKNGESSMSIGHSIGDRSHFIDKKRDREGNVRKQQRFQNLDEASAEAFDREFSSRVRQGYGSGSRSSNLREIDNGLSSSRRSPFGGAGASSSSRRMESRGASRGAPIVTLPEEEETAHSRSSTSHRVGGPLIREISEEEAEQAASSIPKRRRGQQ,not soluble
5,MGSDKIHHHHHHMTEEVPSMDTAPSVGDVREYWNRNPLLSHELASPGSPAFFASLDTAKREDSDRFAMDYWEFGQWAGQRVLDIGCGPGWLTVQYARGGAQVDSVDLTPRAVELAQAHLALHGQSATVREGNAEELPFPDDQFDLVAASGVLHHTPDTQATFREAFRVTKPGGQGKITLYRKGILHHPAVFAMTRIAMRLFGVKHPGADLGKNSSDVDDFIRRYDGDGNPVGIGKTDADWAADLAAAGWVVQGHEVHFFPRRFLPCARLIPVWLHEFLDTRLGTMVYFRLRKPIISGK,not soluble
6,MRDIGGSMSSASTSATIVKRSPPNDTSTSSGVSCDVSPNSMTSPSSGSDQNQNNNSLNKCKCCPYGYHIDLGFVSYAQNVSNGFVSRQGTPTNMTLRGNGADRHLMSPLLDNSIFSDSLDNLMSDFDDVLAPHKEVEKKKTVQDIRSRMQGGYNSDYTTYRRGPPEIPRRAHFEQAKPPPLSRPINLGFSGSRSNTPTQRFNAPNGTGNGYSTALAKTISEIRARNAESPFPDSRVGTPIDLGLHQQNNGHVTPSRFANNRYDDLPPTPTPTFRRAPSQGDLPRGFSTAPSTGPGDFASLRRGREFALPPEQEHHSRRFFSASPKLPRRGLQAGPSIDVESHFTYAQTQNGQKVLARTQSTSTSPPPQAPASAFEPVKPLSNGSPSPTHQVQKPIVTRSIAVSTGPLPAPKPCGECAGLRKELFLAVEKIPPPPPESCHVSTSTVLLEFADQSVGSEPIKHCHVALGTEPTSTREVGTVPVTVRSLHIDTQTDPAASTVDAACSPVLFETQEEAVKVTVAASSSAAAADCEECLKRQDVFTRNVGVGACSISDKICVSCDNQVVEADENEAPGFKTDTKDDQKQRDFEIAKANAVKKLLTNEQKSNFQRGTAVSKSARYDRKRSVDDLDYIVDKKNATSPATSSQEAPPTVPDASESPLTTKVVLKKEVFIEPPKQMLPDPIPARIPRPKISKWAVTSEEEAAETPDEQEEAQDRLTPLRSDMRQLGNRWNRNQVTTASNTTPHLPYSGATSQEDVSDSDAESDCSAHSDATFEVNDDVFDAAPFEVSDRLREALENFNSSILEPGSVAEETVEWSAKLVRHVWMTTAGNSSSRYENVDRFVAELGNLGPQILHMVVNFCDQNGNTALHYAVSHANFAVVSSILDSGECDLDAPNRAGYTAVMLAALSQLDDDMEKAVVHRLFQMGNVNAKASQHGQTALMLAVSHGKKTTTELLLACGANVNEQDQDGSTALMCAAEHGHKELVKMLLAENLVNASLTDVDNSTALSIALENDHREIGVMIYAYLNYGRLDISGPTSTI,not soluble
7,SMTLTLNRQLLTSRQILVAFSGGLDSTVLLHQLVQWRTENPGVALRAIHVHHGLSANADAWVTHCENVCQQWQVPLVVERVQLAQEGLGIEAQARQARYQAFARTLLPGEVLVTAQHLDDQCETFLLALKRGSGPAGLSAMAEVSEFAGTRLIRPLLARTRGELVQWARQYDLRWIEDESNQDDSYDRNFLRLRVVPLLQQRWPHFAEATARSAALCAEQESLLDELLADDLAHCQSPQGTLQIVPMLAMSDARRAAIIRRWLAGQNAPMPSRDALVRIWQEVALAREDASPCLRLGAFEIRRYQSQLWWIKSVTGQSENIVPWQTWLQPLELPAGLGSVQLNAGGDIRPPRADEAVSVRFKAPGLLHIVGRNGGRKLKKIWQELGVPPWLRDTTPLLFYGETLIAAAGVFVTQEGVAEGENGVSFVWQKTLS,soluble
8,MSLAHLAAMFDDLVARFGDRPAIVDDRALSYRELDLLVRKIAVSLAALGIGKGDRVALFLGNCWEFLAVTLACNRLGVLVVPIGIRQRRAELEFLLNNSGAKVVVFEAELTDEIPAAAEVPQLAHRFVAHGTAEGARPFEDLLAAEPANAPLAEMHEDDTAVILYTSGTTGKPKGAELTHLSILHSSYAFARAHELTERDRGLVAVPLSHVTGLVGVSYATIAAGGCVVLMRQAFKTVDFLALAARERITYSILVPAIYTLAVMHPEFDKHDLSAWRIGCFGGAPMPVPTIEMLAKRLPNLQLRNAYGATETTSPTTIMPQAYWRDHMDSVGQAVPYAHVRVLDADDNEVAPGEPGELLIAGPMVVPRYWQRPDANAKEFVNGYWRSGDIGSIDQDGFVRVFDRKKDMINRGGFKIFSAEVENVICGIDGVLETAIIGTPDPVLGERVNAIVVTSEGASLSERDVAAYCAARMSDYKVPESIIIRSEPLPRNANGKIQKTVLRETIADRAASYAREGHHHHHH,not soluble
9,MAVNVYSTSVTSDNLSRHDMLAWINESLQLNLTKIEQLCSGAAYCQFMDMLFPGSIALKKVKFQAKLEHEYIQNFKILQAGFKRMGVDKIIPVDKLVKGKFQDNFEFVQWFKKFFDANYDGKDYDPVAARQGQETAVAPSLVAPALNKPKKPLTSSSAAPQRPISTQRTAAAPKAGPGVVRKNPGVGNGDDEAAELMQQVNVLKLTVEDLEKERDFYFGKLRNIELICQENEGENDPVLQRIVDILYATDEGFVIPDEGGPQEEQEEY,soluble
10,MNPTNYDPRIGQPAQSRPQVSLSMGRRIVQMPTGLPRSYQDESHNEPVGWDEPSGVGGSSGAGGQQSDKPTGLRHFSTKVCEKVKEKGLTNYNEVADELVADYFQNNLIKQIDVVKQEYDMKNIRRRVYDALNVLLAMNIITKSKKDIRWIGLPASASQEISRLEEEKSRREASISSKKQALEEMVLQIVSYKNLVERNRKNEHKNGRPENDTVLHLPFLIINTDKEANVECSVSSDKSEFLFSFDKKFEIHDDFEILKKLNLACSLETTNPTAEEVKTAKSFLPTLHQHYVDEIIANRKKVEAEKEEKRKQQQLIADQMSMNLSQAQYVEPTSSLAQMSYSSRFNRQLQEHLINDGSEDRSAAAGIMERDYDMDKNVNQGSASRGPMYNTYSPQKIRAQVNTPLQVPPVTKRYYVQKTQGPMKHDMTPVVRTVNRPYSTVPPDRRLSTGATSVNSGPVKYYVPQGHQPMHQPVGQRYRVRPQQPQMSHMGQPHQVQQRVVYPAGSISGHQLQPGQRIVTQRIVAPGGPHPPGTIVRKVIRKIVVNNPKQSPAQQVIQKKMMEQDMCTFERKTEQPMTSAQAAALIQHPQPEEYDYFQ,not soluble
11,MGSDKIHHHHHHMSKSHAVVHSALADEASQHNNTLSWFDITPADQERVRSLAPIADHVGEEIIADFYAHILRFEDAAQQFADDTQIERVKRGQKKYFQELINAELDESYAEERKRIGGIHERAGITPTLYVGSYAYYLQRLSQSILENGKEDPHKLFGLVLSMMKIAHYDMALALETYVEAREKTIEIHERQMRELPTPVLELREGLLLVPVVGALDSHRARTLTMQLLDGIRDTRSRAVVLDITGAVSIDSSVANHLFQAMTAARLMGAKSILAGISPTVAQELFRIGVDTKTFTTARNLQQGIELAASALEAHSKHSV,not soluble
12,PVKPVAPGEQQKNWAHWGNTTHGDRFAALDQINKQNVNQLQVAWVAHTGDIPQSNGSGAEDQNTPLQIGDTLYVCTPYSKVLALDVDSGKEKWRYDSKSSSPNWQRCRGLGYYEDSQAQTAPAAGTQPAACSRRLFLPTIDARLIAIDADTGKLCESFGDRGIVDLSVGMGEVKAGYYQQTSTPLVAGNVVVVGGRVADNYSTGEPPGVVRAFDVHTGKLAWAWDPGNPALTGVPPEGQTYTRGTPNVWSAMSYDAKLNLIYLPTGNATPDFFGGERTALDDKYSSSIVAVDATTGQVRWHFQTTHHDLWDFDLPSQPLLYDLPDGKGGTTPVLVQTSKQGMIFMLNRETGEPVAKVEERPVPAGNVKGERYSPTQPYSVGMPMIGNQTLTESDMWGATPIDLLLCRIQFKEMRHQGVFTPPGEDRSLQFPGSLGGMNWGSVSLDPNNSLMFVNDMRLGLANYMVPRAKVAKDASGIEMGIVPMEGTPFGAMRERFLSPLGIPCQKPPFGTMSAVDLKTGKLVWQVPVGTVEDTGPLGIRMHMPIPIGMPTLGASLATQSGLLFFAGTQDFYLRAFDTANGKEIWKSRLPVGSQSGPMTYVSPKTGKQYIIINAGGARQSPDRGDYIIAYALPDHH,not soluble
13,MGSDKIHHHHHHMRSTDRLLFIDFLLKFENKNGTVIPCCVDNFDCTFTHKGGKSMYEKERKELYNAHLLLEKYGLVAYTSGNVSVRIGDHVLIKPSGVPYTELKPEDFVVVDLEGNVIEGEKKPSVDTATHLYLYKHLDWAKSVIHTHSTFAMVWAILEKSIPVLCTAHADVFGEEIPLTEYAPVGSEAIGKAVVKVIGKSGAVLLRKHGVMIVGTSVDDAVKKAIFLEEVAKAAYFATLAGKPTPLPPDEVDHLYNQYHTKYGQK,not soluble
14,MSLTVHATPEPAAHQGVALGSSFYAAMRILPRPQREAMFQVYSFCRFVDDIADSDRPREQRVAELQQWRDDIAALYRGAPPPRLADYQESLRTFGLKREDFEAIIDGMEMDVDADIRAPDEATLDLYCDRVASAVGRLSVRIFGLPEADGIELSHHLGRALQLTNILRDIDEDAGIGRLYLPSELLHKVGITATDPRVVAADSALPSVCAPLVERALAHFAAADKVMNRNPRRVVKAPRIMGKYYYSILQLLIARGFAAPRAPVKLGKASKIAILLQYAIVEGHHHHHH,soluble
15,MVDKAGNPLTVDDISQCHLPGFPILFTQNELLEILAKEIFKQQFLWKSVQDKDIKECNKEERIIKQIPLMPRCPDVLKGLFHCIEIRDERSPKHAIAYKSCLGKLEEMVKDQWDDWNRNQS,not soluble
